The numbers were not newly measured in PMC7920998, which cites them from elsewhere.

The series has as its system Glu122. Put plainly: kinetics. Conditions: enzyme reacting with O2 (non-native substrate); further details not given.

“Cytochrome c-dependent nitric oxide reductase (cNOR, PdNOR) (Paracoccus denitrificans)”: the pKa is given as ~ 6.6.
